Experimental data: the nanobody polyreactivity screen of Harvey et al. (2022)

Assay: yeast display, Sf9 membrane polyspecificity reagent, FACS + sequencing; frameworks hold sequencing errors
In short: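 Nanobodies from a synthetic yeast display library (Saccharomyces cerevisiae BJ5465), induced 36–48 hours with galactose, were stained 1 hour at 4 °C with 10% biotinylated, detergent-solubilized Sf9 membrane reagent, enriched on streptavidin microbeads, then FACS-sorted. Anti-HA (expression) and streptavidin (reagent binding) fluorescence set low and high (top ~1%) gates. Polyreactivity labels come from the gate of origin. Genes were colony-PCR amplified, MiSeq 2 × 250 sequenced and filtered by CDR length.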

Row | Sequence | polyreactivity (PSR sort gate)
1 | QVQLVESGGGLVQAGGSLRLSCAASGLIFYYNAMGWYRPAPGKERELVAAISWSGGSTYYADSVKGRFTISRDNAKNTVYLQMNSLKPEDTAVYYCNADYHSVRRDYWGQGTQVTVSS | low polyreactivity
2 | QVQLVESGGGLVQAGGSLRLSCAASGRISESNDMGWYRQAPGKERELVAAISSSGGSTYYADSVKGRFTISRDNAKNTVYLQMNSLKPVDTAVYYCNAVYYRTVLKIGVYEYDYWGQGTQVTVSS | low polyreactivity
3 | QVQLVESGGGLVQAGGSLRLSCAASGRIFGNNAMGWYRQAPGKVRELVAAIRSRGTRTYYADSVKGRFTISRDNAKNTVNLQMNSLKPEDPAVYYCATTSLTGLYDRYDYWGQGTQVTVSS | high polyreactivity
4 | QVQLVESGGGLVQAGGSLRLSCAASGRIFIIYAMGWYRQAPGKERELVAAITSGGGSTRYADSVKGRFPISRDNAKNTVYLQMNSLKPEDTAVYYCAAARITRGRRYDYWGQGTQVTVSS | high polyreactivity
5 | QVQLVESGGGLVQAGASLRLSCAASGFTFGTYAMGWYRQAPGKERELVAAITKSGVRTYYADSVKGRFTISRDNAKNTVYLQMNSLKPEDTAVYYCNARGHSSLSTIVDFWGQGTQVTVSS | high polyreactivity
6 | QVQLVESGGGLVQAGGSLRLSCAASGSILTDNAMGWYRQAPGKERELVASITGSGGSTYYADSVKGRFTISRDNAKNSVYLQMNSLKRVDTAVYYCAASYRLRYGYWGQGTQVTVSS | high polyreactivity
7 | QVQLVESGGGLVQAGGSLRLSCAASGFTLEPNTMGWYRQAPGKERELVAGISWSGGSTYYADSVKGRFTISRDNAKNTVYLQMNSLKPEDTAVYYCNDDSGWFCYDYWGQGTQVTVSS | low polyreactivity
8 | QVHLVESGGGLVQAGGSLRLSCAASGRTFGWNVMGWYRQAPGTERELVAAISGSGGSTYYADSVKGRFTISRDNAKNTVYLQMNSLKPEDTAVYYCAALYGPGREYDYWGQGTQVTVSS | low polyreactivity
9 | QVQLVESGGGLVQAGGSLRLSCAASGFIFSRNAMGWYRQAPGKERELVAAISAGGGSTYYADSVKGRFTISLDNAKYTVYLQMNSLKPEDSAVYSCAAYFRSQFGYWGQGTEVTVSS | high polyreactivity
10 | QVQLVESGVGLVQAGGSLRLSCAASGGIFSTYTMGWYIQAPGKERELVAAITTGNSTYYADSVKGRFTISRDNAKNTVYLQMNSLKPEDTAVYYCAAFAASRDYYRRLIHDGYDYWGQGTQVTVSS | low polyreactivity
11 | HVQLVESGGGLVQAGGSLRLSCAASGRIFGRNAMGWYRQAPGKERELVAAISSGGSTYYADSVKGRLTISRDNAKNTVYLQMNSLKPEDTAVYYFAVRGSYYNGGRAFESWGQGTQVTVSS | high polyreactivity
12 | QVLLVESGGGLVQAGGSLRLSCAAWSIFYLNAMGWYRQAPGKERELVAAISSAGSTYYADSVKVRFTISRDNAKNTVYLQMNSLKPEDTAVYYCAAYWYDSPGVTEIWYDYWGQGTQVTVSS | low polyreactivity
13 | QVQLVESCGRLVQAGGSLRISCAASGYTFSYYAMGWYRQAHGKERELVAAINYSGGRTYYADSVKGRFTISRDNAKNNVYLQMNSLKPEDTAVYYCSAYTRNGEYDYWGQGTQVTVSS | high polyreactivity
14 | QVQLQESGGGLVQAGGSLRLSCAASGYISLAQTIGWYRQAPGKEREFVASIALGSRTYYTDSVKGSFTISRDNAKTTVYLQMNSLKAEDTAVYYCAARVGASYAHDYWGQGTQVTVSS | low polyreactivity
15 | QVQLVESGGGLVQAGGSLRLSCAASGLIFYRYAMGWYRQAPGKERELVAVITRSGGNTNYADSVKGRFTISRDNAKNTVYLQMNSLKPEDTAVYYCATRGIWKKVPYYYWGQGTQVTVSS | high polyreactivity
16 | QVQLVESGGGLVQAGGSLRLSCAASGRTFTYNAMGWYRQAPGKERELVAAITYRGGSTYYADSVKGRFTISRDNAKNTVYLQMNSLKPEDTAVYYCAARVSYYRYNTPHYYYWGQGTQVTVSS | high polyreactivity
17 | QVQLVESGGGLVQAGGSLRLSCAASGITFFSYAMGWYREAPGKERELVAAISRRTGSTYYADSVKGRFTISRDNGMNTVFLQMMSLKPEDTAVYYCAARLPGTRYPYDYWGQGTQVTVSS | high polyreactivity
18 | QVQLVESGGGLVQAGGSLRLSCAASGSTFVKYAMGWYRQAPGKERELVAAITDGGGGTFYADSVKGRFTISRDNGLNTVYLQMNSLNPEDTAVFYCNVGVSSAEDFDYWGQGTQVTVSS | low polyreactivity
19 | QVQLVESGGGLVQAGGSLRLSCAASARIFRYYAMGWYRQAPGKERELVAGISWRGSSTYYADSVKGRFTISRDNAKNTVYLQMNSLKPEDTAVYYCNRDQSNIPVTGGRFYYWRQGTQVTVSS | high polyreactivity
20 | QVQLVESGGGLVQAGGSLRLSCAASGSIFGYYGMGWYRQAPGKERELVATITSGGSTNYADSVKGRFTISRDNAKNTVYLQMNSLKPEDTAVYYCARQYGYQPERYGYWGQGTQVTVSS | low polyreactivity
21 | QVQLVESGGGLVQAGGSLRLSCAASGSIFREYVMGWYRQAPGKEREFVAAISVSGGSTNYADSVKGRFTISRDNAKNTVYLQMNSLKPEDTAVYYCNADGVLTGYSRGGWYYWGQGTQVTVSS | low polyreactivity
22 | QDQLVESGGGLVQAGGSLRLSCAASGRTFYDNVMGWYRQAPGKERELVAAISSGASTNYADSVKGRFTISRDNAKNSVYFQMNSLKPEDSAVYYCATNGGGGWAYEYWGQGTQVTVSS | low polyreactivity

Row | Sequence | polyreactivity (PSR sort gate)
23 | QDQLGESGGGLVQAGGSLRLSCAASGSTFRYYAMGWYRQAPGKERELLAAITSSGGSTYYADSVKGRFTISRDNAMNTVYLQMNSLNPEDTAVYYCAVAVKNWVKLNYWGQGTQVTVSS | high polyreactivity
24 | QVQLVESGGGLVQAGGSLRLSCAASGSTFTPYAMGWNRQAPGKERELVAAIRRGGSTNYADSVKGRFTISRDNEKNTVYLQMNSLKPEDTAVYYCAATKRRFVKFDYWGQGTQVTVSS | low polyreactivity
25 | QVQLVESGGGLVQAGGSLRLSCAASGRIFFVYAMGWYRQAPGKERELVAHIPSGGSTSYADSVKGRFTISRDNAKNTDYLQMNSLKPEDTAVYSCAARYLGYIYVYYHYTDDYWGQGTQVTVSS | low polyreactivity
26 | QVQLVESGGGLVQAGGSLRLSCAASGITFIYYAMGWYRQAPGKERELVAAISKSGGRTYYADSVKGRFTISRDNAKNTVYLQMNSLKPEDTAVYYCNKLVGDDTALYDYWGQGTQVTVSS | high polyreactivity
27 | QVQLVESGGGLVQAGGSLRLSCAASGRTFLLYAMGWYRQAPGKERELVAAITRGGRTNYADSVKGRFTISRDNAKNTVYLQMNSLKPEDTAVYYCAARYVERHTDYYYWGQGTQVTVSS | low polyreactivity
28 | QVQLVESGGCLVQAGGSLRLSCAASGRIFQRYAMGWYRQAPGKERELVAGITSAGGSTYYADSVKGRFTISRDNAKNTVYLQMKRLKPEDTAVYYCNAGGELRYYGYRAGGTTRSYDYWGQGTQVTVSS | low polyreactivity
29 | QVQLVESGGGLVQAGGSLRLSCAASGRIFTVYAMGWYRQAPGKERELVAAIDWSDGSTYYADSVKGRFTISRDNAKNTVYLQMNCLKPEVTAVYYCAAETYWVVEYDYWGQGTQVTVSS | high polyreactivity
30 | QVQLVESGGGLVQAGGSLRLSCAASGNTFGRNAMGWYIQAPGKERELVAAIDIGADTNYADSVKGRFTISRDNAKNTVYLQMNSLKPEDTAVYYCAASYRYVRWKWGYNYWGQGTQVTVSS | high polyreactivity
31 | QVQLVESGGGLLQAGGSLRLSCAASGITFYRNAMGWYRQAPGKERELVAAITWSGGSTYYADSVKGRFTISRDYAKNTVYLQMNSLKPEDSAVYYCNADYRHRYYWGQGTQVTVSS | high polyreactivity
32 | QVQLVESGGGLVQAGGSLRLSCAASGRIFSTYVMGWYRQAPGKERELVAAITRGGSTNYADSVKGRFTISRDNAKNTVYLQMNSLKPEDTAVYYCNAQRRGTYYWGQATQVTVSS | high polyreactivity
33 | QVHLVESGGGLVQAGGSLRLSCAASGFIFRRYAMGWYRQAPGKERELVAAITSSGTSTYYADSVKGRFTISRDNAKNTVYLQMNSLKPEDAAVYFCNRDNYVRWIREDFDYWGQGTQVTVSS | high polyreactivity
34 | HVHLVESGGGLVQAGGSLSLICAASGFIFRYYAMGWYRQAPGTEREVVAAITRGGSTYYADSVKGRFTISRDNAKNTVYLQMNSLKPVATAVYYCAARLYTQYYYWGQGTQVTVSS | high polyreactivity
35 | QVQLVESGGGLVQAGGSLRLSCAASGSISKGYAMGWYRQAPGKERELVARISGDGGSTYYADSVKGRFTISRDNAKNTVYLQMNSLKPEDTAVYYCNARAYYGIRYYSWGQGTQVTVSS | high polyreactivity
36 | QVQLVESGGGLVQAGGSLRLSCAASGITFTGYAMGWYRPAPGKERELGAAITWSSGSTYYADSVKGRFTISRDNAKNTVYLQMNSLKPEDTAVYYCAAEVNVGTLLLSVIVEDGDYWGQGTQVTVSS | low polyreactivity
37 | QVQLVESGGGLVQAGGSLRLSCAASGRTFYGNAMGWYRQAPGKERELVASITRRGGITYYADSVKGRFTISRDNAKNTVYLQMNSLKPEDTAVYYCAKAQLGPWSFEYWGQGTQVTVSS | high polyreactivity
38 | QVQLVESGGGLVQAGGSLRLSCAASGSTFRFYAMGWYRQAPGKERELVAAITWRSGRTSYADSVKGRFTISRDNAKNTVYLQMNSLKPDDTAVYYCAATSVYRYDYWGQGTLVTVSS | high polyreactivity
39 | QVQLVESGGGLVQAGGSLRLSCAASGRTFWYYGMGWYRQAPGKERELVAAISRSGGRTSYADSVKGRFTISRDNAKNTVYLQMNSLKPEDTAVYYCATDGYYRYGYWGQGTQVTVSS | high polyreactivity
40 | QVQLVESGGGLVQAGGSLRLSCAASGITFAYYVMGWYRPAPGKERELVAVISSRGSRTFYADSVKGRFTISRDNAKNTVYLQMNSLKPEDTAVYYCAADSTYSYYWGQGTQVTVSS | high polyreactivity
41 | QVQLVESGGGLVQAGGSLRLSCAASGNIFLYYAMGWYRPAPGKERELVADIDSSGAATYYADSVKGRFTISRDYAKNTVYLQMNSLKPEDTAVYYCAAEFHWWYAGYDYGYWGQGTQVTVSS | low polyreactivity
42 | QVQLVESGGGLVQAGGSLRLSCAASGSIFKSYAMGWYRQAPGKERELVAAITYRGGSTYYADSVKGRFTISRDNAKNTVYLQMNSLKPEDTAVYYCAKDQHRYYQVWGDYWGQGTQVTVSS | high polyreactivity
43 | QVQLVESGGGLVQAGGSLRLSCAASGRIFYYYAMGWYRQAPGKERELVAAITSGGRTYYADSVKGRFTISRDNAKNTVYLQMNSLKPEDTAVYYCAADRTYTYLGPGYEYWGQGTQVTVSS | low polyreactivity
